{"source": "patent CN114805579A", "about": "(UNIV ZHENGZHOU, dated 2022)", "binders": {"B1": {"name": "抗人ACE2蛋白单克隆抗体2D6 (antibody, V domains shown)", "VH": "EVKLVESGGGLVQPGGSLRLSCATSGFTFTDYYMSWVRQPPGKALEWLGFIRNRPNDYTTEYSASVKGRFTISRDNSQSILYLQMNTLRAEDSATYYCARDRGLRQAMDYWGQGTSVTVSS", "VL": "QIVLTQSPAIMSASPGEKVTMTCTASSSVTYMHWYQQKSGTSPKRWIYDTSKLASGVPGRFSGSGSGTSYSLTISSMEAEDAATYFCQQWSFNPLTFGSGTKLEIK"}}, "key": {"[1]": {"target": "hACE2-ecto重组蛋白 (人ACE2胞外区, C端6×His标签) (human, UniProt Q9BYF1 18-740)", "sequence (Q9BYF1 other isoform, or with tags, fused parts or gaps)": "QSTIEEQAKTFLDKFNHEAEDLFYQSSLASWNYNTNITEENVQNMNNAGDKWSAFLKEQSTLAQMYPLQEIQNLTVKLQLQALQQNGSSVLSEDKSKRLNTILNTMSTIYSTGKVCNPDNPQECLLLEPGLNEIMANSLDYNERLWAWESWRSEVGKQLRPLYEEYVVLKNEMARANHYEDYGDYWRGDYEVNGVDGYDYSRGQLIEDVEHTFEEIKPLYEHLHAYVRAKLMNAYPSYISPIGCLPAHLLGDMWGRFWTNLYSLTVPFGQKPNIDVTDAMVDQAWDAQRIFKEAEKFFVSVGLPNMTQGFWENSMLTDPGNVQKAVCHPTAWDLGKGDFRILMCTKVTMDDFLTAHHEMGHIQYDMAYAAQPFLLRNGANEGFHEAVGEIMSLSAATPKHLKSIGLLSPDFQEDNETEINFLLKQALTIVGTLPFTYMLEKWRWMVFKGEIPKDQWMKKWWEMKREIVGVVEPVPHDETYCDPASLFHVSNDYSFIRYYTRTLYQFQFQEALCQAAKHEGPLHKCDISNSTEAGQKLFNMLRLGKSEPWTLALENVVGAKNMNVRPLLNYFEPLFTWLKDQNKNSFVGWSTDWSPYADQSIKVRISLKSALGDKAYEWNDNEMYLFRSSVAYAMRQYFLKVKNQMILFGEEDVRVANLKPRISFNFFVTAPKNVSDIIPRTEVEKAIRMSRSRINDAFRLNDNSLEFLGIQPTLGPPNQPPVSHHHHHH"}, "[2]": {"target": "人ACE2 (293T-hACE2细胞表面) (human, UniProt Q9BYF1 18-805)", "sequence (Q9BYF1 18-805)": "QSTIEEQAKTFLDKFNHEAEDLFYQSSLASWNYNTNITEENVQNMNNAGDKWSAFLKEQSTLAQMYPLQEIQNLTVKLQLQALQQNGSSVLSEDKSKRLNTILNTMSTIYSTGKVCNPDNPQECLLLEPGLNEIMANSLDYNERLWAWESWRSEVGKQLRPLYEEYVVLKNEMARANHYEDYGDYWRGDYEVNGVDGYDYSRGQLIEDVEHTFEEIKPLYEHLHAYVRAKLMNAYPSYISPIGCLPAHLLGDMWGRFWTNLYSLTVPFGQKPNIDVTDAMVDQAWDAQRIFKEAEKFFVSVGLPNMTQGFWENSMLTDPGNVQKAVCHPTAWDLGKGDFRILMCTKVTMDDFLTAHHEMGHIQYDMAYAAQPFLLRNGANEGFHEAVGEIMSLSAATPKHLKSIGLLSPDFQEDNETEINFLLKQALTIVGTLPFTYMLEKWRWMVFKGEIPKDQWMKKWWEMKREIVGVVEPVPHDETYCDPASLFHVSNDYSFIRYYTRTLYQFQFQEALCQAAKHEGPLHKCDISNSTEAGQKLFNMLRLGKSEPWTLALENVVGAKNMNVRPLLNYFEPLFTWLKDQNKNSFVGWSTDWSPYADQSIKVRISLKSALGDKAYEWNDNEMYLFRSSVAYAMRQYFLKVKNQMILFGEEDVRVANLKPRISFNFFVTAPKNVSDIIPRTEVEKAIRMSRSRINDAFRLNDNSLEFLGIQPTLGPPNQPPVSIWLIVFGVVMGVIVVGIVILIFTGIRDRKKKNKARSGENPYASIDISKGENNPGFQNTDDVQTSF", "assay": "cell-based or functional assay"}}, "data": [{"binder": "B1", "values": [{"measurement": "EC50", "setting": "[1]", "result": 0.00841, "unit": "µg/mL"}, {"measurement": "假病毒阻断试验 IC50, SARS-CoV-2 Delta(B.1.617.2)假病毒感染293T-hACE2细胞 (荧光素酶活性)", "setting": "[2]", "result": 0.346, "unit": "µg/mL"}, {"measurement": "假病毒阻断试验 IC50, SARS-CoV-2 Omicron(B.1.1.529)假病毒感染293T-hACE2细胞 (荧光素酶活性)", "setting": "[2]", "result": 0.139, "unit": "µg/mL"}, {"measurement": "假病毒阻断试验 IC50, SARS-CoV-2野生型(Wuhan-1)假病毒感染293T-hACE2细胞 (荧光素酶活性)", "setting": "[2]", "result": 0.164, "unit": "µg/mL"}]}]}
